The source of these data is article doi:10.1101/2020.07.19.210252.

This series deals with FXR1-GST (Homo sapiens, UniProt P51114 1-621). Kind of series: EMSA. (In EMSA bound probe runs differently from free probe, usually more slowly.)
Sequence of FXR1-GST (P51114 whole entry): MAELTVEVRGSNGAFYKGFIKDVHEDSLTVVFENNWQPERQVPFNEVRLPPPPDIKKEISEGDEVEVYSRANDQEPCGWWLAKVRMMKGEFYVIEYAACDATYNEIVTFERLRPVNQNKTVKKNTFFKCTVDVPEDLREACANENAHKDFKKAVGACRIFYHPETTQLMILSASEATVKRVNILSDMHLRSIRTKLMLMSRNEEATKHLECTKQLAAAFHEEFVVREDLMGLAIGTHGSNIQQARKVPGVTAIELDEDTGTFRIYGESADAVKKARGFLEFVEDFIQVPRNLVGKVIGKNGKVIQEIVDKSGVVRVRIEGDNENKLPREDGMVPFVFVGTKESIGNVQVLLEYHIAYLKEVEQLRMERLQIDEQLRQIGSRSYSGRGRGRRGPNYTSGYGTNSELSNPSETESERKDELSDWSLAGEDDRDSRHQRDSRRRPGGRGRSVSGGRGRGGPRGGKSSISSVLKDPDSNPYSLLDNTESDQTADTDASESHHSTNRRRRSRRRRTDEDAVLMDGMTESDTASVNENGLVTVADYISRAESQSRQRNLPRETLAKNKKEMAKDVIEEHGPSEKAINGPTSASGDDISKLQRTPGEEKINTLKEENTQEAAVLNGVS

UUUUUAUUUAAGUAC (ssRNA) [cMYC 3'UTR-ARE4]: the binding result is “binds”.
With UUGUGAUUUAUUUUG (ssRNA) [cMYC 3'UTR-ARE5], the binding result is reported as “binds”.
UUUGUAUUUAAGAAU (ssRNA) [cMYC 3'UTR-ARE2]: the binding result was “binds”.
Then GAAAGAUUUAGCCAU (ssRNA) [cMYC 3'UTR-ARE1], with “binds”.
